Data from patent US20060222643A1 (Chugai, published 2006).
Positions count from the first letter of the chain named. Each block holds one molecule with its values, some of them ahead of it. No end group written: not given here.

Legend:
[1] = target: human Mpl expressed on BaF3 cells (BaF3-human Mpl) (human) (UniProt P40238); experiment: cell-based or functional assay
[2] = target: T1, human Mpl expressed on BaF3 cells (BaF3-human Mpl) (human, UniProt P40238 26-635); experiment: cell-based or functional assay
T1 sequence: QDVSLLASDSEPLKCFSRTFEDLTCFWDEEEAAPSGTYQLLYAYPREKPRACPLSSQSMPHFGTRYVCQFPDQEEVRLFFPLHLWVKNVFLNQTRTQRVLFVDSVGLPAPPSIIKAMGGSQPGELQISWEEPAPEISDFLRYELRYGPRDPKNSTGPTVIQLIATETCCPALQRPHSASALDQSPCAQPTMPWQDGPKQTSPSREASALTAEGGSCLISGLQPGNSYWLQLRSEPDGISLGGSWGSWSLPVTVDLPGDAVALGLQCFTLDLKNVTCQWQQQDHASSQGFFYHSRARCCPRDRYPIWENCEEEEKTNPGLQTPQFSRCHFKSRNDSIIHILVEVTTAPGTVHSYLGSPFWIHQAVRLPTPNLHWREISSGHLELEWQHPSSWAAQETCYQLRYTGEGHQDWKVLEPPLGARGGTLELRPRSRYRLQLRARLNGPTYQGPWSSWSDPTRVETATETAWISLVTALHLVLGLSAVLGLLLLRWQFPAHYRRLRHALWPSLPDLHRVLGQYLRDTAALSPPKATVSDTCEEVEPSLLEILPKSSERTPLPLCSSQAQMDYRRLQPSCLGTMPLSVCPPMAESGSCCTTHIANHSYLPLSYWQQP

[3] = target: T2, mouse Mpl expressed on CHO cells (CHO-mouse Mpl) (mouse, UniProt Q08351 26-625); experiment: flow cytometry on CHO-mouse Mpl cells; COS7 culture supernatant; detection with anti-FLAG M2 antibody and FITC-labeled anti-mouse IgG
T2 construct: whole, on cells; pCXND3-mouse Mpl-His in CHO-DG44; also called mouse Mpl-His
T2 sequence (looked up): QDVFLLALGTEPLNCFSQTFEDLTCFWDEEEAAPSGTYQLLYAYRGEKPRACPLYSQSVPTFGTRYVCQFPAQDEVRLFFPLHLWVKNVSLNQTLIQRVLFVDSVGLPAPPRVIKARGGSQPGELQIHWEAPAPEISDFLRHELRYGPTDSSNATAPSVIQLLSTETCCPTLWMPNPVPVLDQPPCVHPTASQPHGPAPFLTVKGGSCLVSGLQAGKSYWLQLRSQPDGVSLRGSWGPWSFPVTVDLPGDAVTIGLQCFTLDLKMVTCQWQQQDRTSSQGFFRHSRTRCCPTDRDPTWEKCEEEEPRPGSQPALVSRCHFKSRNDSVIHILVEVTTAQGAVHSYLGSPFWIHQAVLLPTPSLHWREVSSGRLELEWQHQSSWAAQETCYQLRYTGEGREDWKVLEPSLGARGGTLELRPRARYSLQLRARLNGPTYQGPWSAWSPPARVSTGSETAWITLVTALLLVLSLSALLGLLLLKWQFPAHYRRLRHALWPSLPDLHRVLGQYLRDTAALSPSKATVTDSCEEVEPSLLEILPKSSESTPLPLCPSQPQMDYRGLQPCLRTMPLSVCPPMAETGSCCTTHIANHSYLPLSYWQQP
Description: (§1) CHO-human Mpl, CHO-monkey Mpl, and CHO-mouse Mpl cells were recovered and suspended in FACS buffer (1% FBS/PBS) to a final concentration of 1×10⁶ cells/mL. Cell suspensions were aliquoted at 100-μL/well into the Multiscreen-HV Filter Plates (Millipore). After centrifugation, the supernatant was removed. An appropriate concentration of diabody or sc(Fv)2 was added into each well and incubated on ice for 30 min. The cells were washed once with 200 μL of FACS buffer, and incubated on ice for 30 min following the addition of 10 μg/mL ANTI-FLAG® M2 Monoclonal Antibody (Sigma-Aldrich). The cells were then washed once with 200 μL of FACS buffer, and a 100×-diluted FITC-labeled anti-mouse IgG antibody (Beckman Coulter) was added to the plate. The plate was incubated on ice for 30 min. After centrifugation, the supernatant was removed. The cells were suspended in 400 μL of FACS Buffer, and then analyzed by flow cytometry using EPICS ELITE ESP (Beckman Coulter). An analysis gate was set on the forward and side scatters of a histogram to include viable cell populations.
(§2) The binding activities of the diabodies were assessed by flow cytometry using CHO cells that express Mpl derived from various species (FIG. 8). AB317 was proven to bind to CHO-mouse Mpl.

[4] = target: T3, cynomolgus monkey Mpl expressed on CHO cells (CHO-monkey Mpl) (cynomolgus monkey, UniProt P40238 26-635 (human entry)); experiment: flow cytometry on CHO-monkey Mpl cells; COS7 culture supernatant; detection with anti-FLAG M2 antibody and FITC-labeled anti-mouse IgG
T3 construct: pCXND3-monkey Mpl-His in CHO-DG44; also called monkey Mpl-His
T3 chain: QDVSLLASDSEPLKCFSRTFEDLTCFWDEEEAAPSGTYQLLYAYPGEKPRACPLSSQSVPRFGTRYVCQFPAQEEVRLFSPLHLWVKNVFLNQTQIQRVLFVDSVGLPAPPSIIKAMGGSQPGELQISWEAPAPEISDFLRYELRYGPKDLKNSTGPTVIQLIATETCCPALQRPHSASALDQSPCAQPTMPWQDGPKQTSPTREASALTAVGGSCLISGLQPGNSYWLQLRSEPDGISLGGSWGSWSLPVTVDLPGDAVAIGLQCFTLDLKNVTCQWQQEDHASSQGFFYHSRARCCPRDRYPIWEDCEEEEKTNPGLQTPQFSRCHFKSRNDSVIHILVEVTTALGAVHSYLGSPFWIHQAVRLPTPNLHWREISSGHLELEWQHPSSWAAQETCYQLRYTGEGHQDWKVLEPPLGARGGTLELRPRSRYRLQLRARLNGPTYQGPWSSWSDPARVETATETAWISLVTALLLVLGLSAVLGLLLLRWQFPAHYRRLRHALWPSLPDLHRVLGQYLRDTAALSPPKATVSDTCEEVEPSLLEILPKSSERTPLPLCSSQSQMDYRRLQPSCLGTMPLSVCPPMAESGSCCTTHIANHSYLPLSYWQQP
Description: as §1, §2

[5] = target: T4, MG10 (Gln213 to Ala231)-GST fusion protein (human, also: fused with GST); experiment: SPR, Biacore 3000, MG10-GST immobilized on CM5, Bivalent analyte model (constants as for the monovalent antibody), triplicate
T4 construct: As MG1; also called MG10-GST fusion protein; GST fusion protein containing MG10; not shown: glutathione-S-transferase of vector pGEX-4T-3 (Amersham Biosciences)
T4 chain: QPTMPWQDGPKQTSPSREA
Description: The Sensor Chip CM5 (Biacore) was placed in Biacore 3000 (Biacore), and MG10-GST fusion protein was immobilized onto the chip by amine-coupling methods. HBS-EP Buffer (Biacore) was used as the running buffer, and the flow rate was 20 μL/min. 5.5 to 175.0 nM of VB22B IgG solution was prepared using HBS-EP Buffer, and injected over each of the chip surfaces for 2 min to obtain the binding region at the respective concentrations. Then, dissociation region for the 2 minutes was measured. VB22B IgG bound to the MG10-GST fusion protein on the sensor chip was removed by injecting 20 mM HCl over the sensor chip for 1 min, and the chip was recovered. Similarly, 4.7 to 150.1 nM of VB22B sc(Fv)2, 5.3 to 168.9 nM of hVB22B q-wz5 sc(Fv)2, and 4.9 to 156.8 nM of hVB22B u2-wz4 sc(Fv)2 were prepared and injected over the chip surfaces onto which MG10-GST fusion protein was immobilized, and the measurement was carried out.
All the antibodies used were bivalent antibodies, and thus the sensorgrams at each concentration were obtained in the presence of both monovalent and bivalent bindings. In this context, the reaction rate constant was determined as that for the monovalent antibody by analysis using the Bivalent analyte model of BIAevaluation ver.3.1 software (Biacore). The above analysis was carried out in triplicates for each antibody. The binding rate constant (ka), dissociation rate constant (kd), and dissociation constant (KD) were determined as those for the monovalent antibody by the procedure described above. The constants are indicated below in Table 1.

[6] = target: T2, mouse Mpl expressed on CHO cells …; experiment: flow cytometry on CHO cells, detection by anti-FLAG M2 and FITC anti-mouse IgG
Description: as §1
(§3) The binding activity of the purified VB22B sc(Fv)2 to various Mpl molecules expressed in CHO cells was determined (FIG. 2).

[7] = target: T3, cynomolgus monkey Mpl expressed on CHO …; experiment: as above
Description: as §1, §3

- agonistic activity, EC50 (growth of BaF3-human Mpl, WST-8) [1]: 0.076 nM
Molecule: recombinant human thrombopoietin (rhTPO, R&D) (from UniProt P40225 22-353) (ligand)

- TPO-like agonistic activity, EC50 (growth of BaF3-human Mpl, WST-8) [2]: 0.061 nM
- binding result [3]: no binding
- binding result [4]: binds
B1: VB22B diabody (scFv)
scFv: QVQLQQSGPELVKPGASVKISCKASGYAFTNSWMNWVKQRPGKGLEWIGRIYPGDGETIYNGKFRVKATLTADKSSSTAYMDISSLTSEDSAVYFCARGYDDYSFAYWGQGTLVTVSAGGGGSDIVMTQAAPSIPVTPGESVSISCRSSKSLLHSNGNTYLYWFLQRPGQSPQLLIYRMSNLASGVPDRFSGSGSGTAFTLRISRVEAEDVGVYYCMQHIEYPFTFGSGTKLEIK
notes: also called VB22B db; VB22B single-chain Fv

- Kd [5]: 13.6 nM
- koff [5]: 0.0051 s⁻¹
- kon [5]: 376000 M⁻¹ s⁻¹
B2: hVB22B q-wz5 sc(Fv)2 (scFv)
chain: QVQLVQSGPEVKKPGASVKVSCKASGYTFTNSWMNWVRQRPGKGLEWIGRIYPGDGETIYNGKFRVRVTITADESTSTAYMELSSLRSEDTAVYYCARGYDDYSFAYWGQGTTVTVSSGGGGSGGGGSGGGGSDIVMTQSPLSLPVTPGEPASISCRSSKSLLHSNGNTYLYWFQQKPGQAPRLLIYRMSNLASGVPDRFSGSGSGTAFTLKISRVEAEDVGVYYCMQHIEYPFTFGQGTKLEIKGGGGSGGGGSGGGGSQVQLVQSGPEVKKPGASVKVSCKASGYTFTNSWMNWVRQRPGKGLEWIGRIYPGDGETIYNGKFRVRVTITADESTSTAYMELSSLRSEDTAVYYCARGYDDYSFAYWGQGTTVTVSSGGGGSGGGGSGGGGSDIVMTQSPLSLPVTPGEPASISCRSSKSLLHSNGNTYLYWFQQKPGQAPRLLIYRMSNLASGVPDRFSGSGSGTAFTLKISRVEAEDVGVYYCMQHIEYPFTFGQGTKLEIK
notes: Humanized sc(Fv)2 without Flag tag, purified on an MG10-GST column; also called humanized VB22B sc(Fv)2 (q-wz5)

- Kd [5]: 10.2 nM
- koff [5]: 0.00617 s⁻¹
- kon [5]: 608000 M⁻¹ s⁻¹
B3: hVB22B u2-wz4 sc(Fv)2 (scFv)
chain: B2 chain with E82Q, Q175L, A181S, R183Q, A208D, E342Q, Q435L, A441S, R443Q, A468D
notes: Humanized sc(Fv)2 without Flag tag, purified on an MG10-GST column; also called humanized VB22B sc(Fv)2 (u2-wz4)

- Kd [5]: 11.7 nM
- koff [5]: 0.00491 s⁻¹
- kon [5]: 423000 M⁻¹ s⁻¹
- TPO-like agonistic activity, EC50 (growth of BaF3-human Mpl, WST-8) [2]: 0.027 nM
- binding result [6]: no binding
- binding result [7]: binds
B4: VB22B sc(Fv)2 (scFv)
chain: QVQLQQSGPELVKPGASVKISCKASGYAFTNSWMNWVKQRPGKGLEWIGRIYPGDGETIYNGKFRVKATLTADKSSSTAYMDISSLTSEDSAVYFCARGYDDYSFAYWGQGTLVTVSAGGGGSGGGGSGGGGSDIVMTQAAPSIPVTPGESVSISCRSSKSLLHSNGNTYLYWFLQRPGQSPQLLIYRMSNLASGVPDRFSGSGSGTAFTLRISRVEAEDVGVYYCMQHIEYPFTFGSGTKLEIKGGGGSGGGGSGGGGSQVQLQQSGPELVKPGASVKISCKASGYAFTNSWMNWVKQRPGKGLEWIGRIYPGDGETIYNGKFRVKATLTADKSSSTAYMDISSLTSEDSAVYFCARGYDDYSFAYWGQGTLVTVSAGGGGSGGGGSGGGGSDIVMTQAAPSIPVTPGESVSISCRSSKSLLHSNGNTYLYWFLQRPGQSPQLLIYRMSNLASGVPDRFSGSGSGTAFTLRISRVEAEDVGVYYCMQHIEYPFTFGSGTKLEIK
notes: Single-chain (Fv)2 with 15-residue linkers, purified on anti-Flag gel (FLAG-tagged); also called murine VB22B sc(Fv)2; anti-human Mpl sc(Fv)2
